# Ends that are not written are not given here. * marks the point of attachment. Biotin = O=C1N[C@H]2[C@H](CS[C@H]2CCCCC(=O)*)N1; azide = [N-]=[N+]=N*
# T1: deglycosylated RNF43 (human, UniProt Q68DV7 24-197, biotin; deglycosylated with Deglycosylation Mix II (glycosylation sites N62 and N92))
# T1 chain: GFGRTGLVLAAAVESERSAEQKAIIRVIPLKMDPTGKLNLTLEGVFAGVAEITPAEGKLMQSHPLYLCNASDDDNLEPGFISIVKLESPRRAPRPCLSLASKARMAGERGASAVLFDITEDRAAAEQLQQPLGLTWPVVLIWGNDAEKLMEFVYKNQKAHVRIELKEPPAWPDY
# T2: human RNF43 (in solution) (human)
# T2 chain: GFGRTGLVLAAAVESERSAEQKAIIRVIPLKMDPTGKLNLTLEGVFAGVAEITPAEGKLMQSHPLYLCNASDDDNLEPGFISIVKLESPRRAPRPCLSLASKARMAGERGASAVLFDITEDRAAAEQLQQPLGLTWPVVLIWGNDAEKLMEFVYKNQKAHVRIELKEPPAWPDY
# B1: extracellular domain (ECD) of the human RNF43 protein, biotinylated (domain or fragment)
# chain: GFGRTGLVLAAAVESERSAEQKAIIRVIPLKMDPTGKLNLTLEGVFAGVAEITPAEGKLMQSHPLYLCNASDDDNLEPGFISIVKLESPRRAPRPCLSLASKARMAGERGASAVLFDITEDRAAAEQLQQPLGLTWPVVLIWGNDAEKLMEFVYKNQKAHVRIELKEPPAWPDY
# modifications: biotin (EZ-link-NHS-PEG4-biotin), 1–2 biotin molecules per protein
# B2: mouse RNF43 (domain or fragment)
# chain: GFGHTGRVLAAAVESERSAEQKAVIRVIPLKMDPTGKLNLTLEGVFAGVAEVTPAEGKLMQSHPLYLCNASDDDNLEPGFISIVKLESPRRAPRPCLSLASKARMAGERGANAVLFDITEDRSAAEQLQQPLGLTKPVVLIWGSDAAKLMEFVYKNRKAYVWIELKEPPAGANY
# How the values were obtained:
# [1] = biological target: B2; test: SPR
# [2] = biological target: B1; test: SPR
# [3] = biological target: T1, deglycosylated RNF43; test: SPR; deglycosylated RNF43
# [4] = biological target: B1; test: SPR
# [5] = biological target: NAz-GUR-1.6.12.2; test: SPR
# [6] = biological target: GUR-1.6.12.12; test: SPR
# [7] = biological target: GUR-1.6.12.4; test: SPR
# [8] = biological target: GUR-1; test: SPR
# [9] = biological target: GUR-1.6.12.16; test: SPR
# [10] = biological target: B1; test: SPR; RNF43 immobilized
# [11] = biological target: T2, human RNF43 (in solution); test: SPR; bio-GUR-1.6.12.2 immobilized
binder,measurement,setting,value
EQCTSTQDLCHDYSHVCCWPLDCRWAVKYQWFWDCIG (designed binder) [GUR-1.6.12.2],Kd,[1],2.1 nM
same,Kd,[2],1.1 nM
same,Kd,[3],2.8 nM
"azide-EQCTSTQDLCHDYSHVCCWPLDCRWAVKYQWFWDCIG (designed binder, also: dimer via bivalent PEG5 linker (azide–alkyne cycloaddition)) [di-GUR-1.6.12.2]",Kd,[4],0.06 nM
B1,Kd,[5],2.9 nM
same,Kd,[6],7.9 nM
same,Kd,[7],3.9 nM
same,Kd,[8],1220 nM
same,Kd,[9],4 nM
QCVKKDELCIPYYLDCCWPLDCRWAVKYQWFWDCIG (designed binder) [GUR-1.6.12],Kd,[2],56 nM
QCVKKDELCIPYYLDCCEPLECRWAVKYQWFWDCIG (designed binder) [GUR-1.6],Kd,[2],92 nM
B2,Kd,[6],5.1 nM
same,Kd,[7],4.5 nM
same,Kd,[9],1.6 nM
HDYSHVCCWPLDCRWAVKYQWFWDCIG [truncated peptide GUR-1.6.12.2 H11-G37],Kd,[4],4.6 nM
"Biotin-EQCTSTQDLCHDYSHVCCWPLDCRWAVKYQWFWDCIG (designed binder, cysteine pairing not given here) [N-terminal biotinylated GUR-1.6.12.2]",Kd,[10],0.5 nM
same,Kd,[11],46.9 nM
"azide-EQCTSTQDLCHDYSHVCCWPLDCRWAVKYQWFWDCIG (designed binder, also: hexamer via six-armed PEG linker (azide–alkyne cycloaddition)) [hex-GUR-1.6.12.2]",Kd,[4],0.0002 nM
